From patent US20200291126A1 (EUTILEX, published 2020)
Residue numbers refer to the chain shown, from its start. Each block holds one binder with its values, some of them ahead of it.

Tests used:
[1] = target: T1, V-Set And Immunoglobulin Domain Containing 4 (VSIG4) (human, UniProt Q9Y279 20-283, limits assumed); assay: kinetic affinity measurement; method not stated
T1 construct: also called CRIg; Z39Ig
T1 sequence (looked up): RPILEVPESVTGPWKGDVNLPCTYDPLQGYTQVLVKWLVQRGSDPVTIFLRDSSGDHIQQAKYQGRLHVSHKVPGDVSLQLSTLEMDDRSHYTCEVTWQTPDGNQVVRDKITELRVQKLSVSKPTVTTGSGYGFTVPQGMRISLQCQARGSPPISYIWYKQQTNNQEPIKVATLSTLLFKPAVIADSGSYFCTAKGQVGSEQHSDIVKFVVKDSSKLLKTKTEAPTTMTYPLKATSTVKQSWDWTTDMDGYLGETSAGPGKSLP

[2] = target: T1, V-Set And Immunoglobulin Domain …; assay: kinetic affinity measurement; method not stated at the table (SPR named for EU103.2 in FIG. 4B)

B1: A1 antibody (EU103_T01.01) (antibody, V domains shown)
VH: QVTLKESGPTLVKPTQTLTLTCTFSGISLTTSGMGVGWIRQPPGKALEWLADIFWDDNKYYNPSLKSRLTITKDTSKNQVVLTMTNMDPVDTATYYCVRVYYKNDGYFDVWGKGTTVTVSS
VL: DIVLTQSPLSLPVTLGQPASISCRASKSVTTSGYSFMHWYQQRPGQSPRLLIYLASNLEPGVPDRFSGSGSGTDFTLKISRVEAEDVGVYYCQQSGELPYTFGQGTKLEIK
Kd [1]: 8.69 nM
koff [1]: 0.00328 s⁻¹
kon [1]: 378000 M⁻¹ s⁻¹

B3: A2 antibody (EU103_T01.02) (antibody, V domains shown)
VH: B1 VH
VL: B1 VL with S80F
Kd [1]: 8.23 nM
koff [1]: 0.00296 s⁻¹
kon [1]: 360000 M⁻¹ s⁻¹

B4: A1.3 antibody (EU103_T01.01S) (antibody, V domains shown)
VH: B1 VH with K5V, T15G, S67G, V81Y
VL: B1 VL
notes: Generated from A1
Kd [1]: 7.95 nM
koff [1]: 0.0032 s⁻¹
kon [1]: 402000 M⁻¹ s⁻¹

Second part, the binder after the results:

Kd [1]: 7.64 nM
koff [1]: 0.00308 s⁻¹
kon [1]: 404000 M⁻¹ s⁻¹
B2: A2.3 antibody (EU103_T01.02S) (antibody, V domains shown)
VH: B1 VH with K5V, T15G, S67G, V81Y
VL: B1 VL with S80F
notes: Generated from A2

Kd [2]: 71.6 nM
koff [2]: 0.0131 s⁻¹
kon [2]: 183000 M⁻¹ s⁻¹
B5: EU103.2 antibody (antibody, V domains shown)
VH: QVQLQESGPGLVKPSQTLSLTCSFSGISLTTSGMGVGWIRQPPGKGLEWLADIFWDDNKYYNPSLKSRVTISVDTSKNQFSLKLSSVTAADTAVYYCVRVYYKNDGYFDVWGQGTLVTVSS
VL: EIVMTQSPATLSVSPGERATLSCRASKSVTTSGYSFMHWYQQKPGQAPRLLIYLASNLEPGIPARFSGSGSGTEFTLTISSLQSEDFAVYYCQHSRELPYTFGQGTKLEIK
notes: also called humanized anti-VSIG4 antibody generated from mouse anti-VSIG4 antibody mu6H8
